According to publication PMC11994318, “In vitro characterization of the yeast DEAH/RHA RNA helicase Dhr1” (The Journal of Biological Chemistry, 2025):
Positions count from the first letter of the chain named. Ends that are not written are not given here. * marks the point of attachment. 6FAM = O=C1OC2(c3ccc(O)cc3Oc3cc(O)ccc32)c2cc(C(=O)*)ccc21

T1: Utp14-G (aa 710–800), fusion to maltose binding protein (Saccharomyces cerevisiae, UniProt Q04500 710-800)
T1 construct: Purified as a fusion to MBP; the tag is cleavable with TEV protease but no cleavage is described; source: E. coli Codon+ BL21 (DE3) RIL (AJE854), purified (HisTrap HP, HiTrap Q HP); not shown: MBP, N-terminal, kept
T1 sequence (looked up): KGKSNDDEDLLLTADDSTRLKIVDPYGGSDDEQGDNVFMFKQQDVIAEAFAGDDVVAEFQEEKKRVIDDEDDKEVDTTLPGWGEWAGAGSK

B1: ΔN-Dhr1-WT (Δ1 to 375-Dhr1) (domain or fragment, Saccharomyces cerevisiae, UniProt Q04217 376-1267, looked up)
chain: VEVSRSDEIQKARIQLPVFGEEHKIMEAIHHNDVVIICGETGSGKTTQVPQFLYEAGFGAEDSPDYPGMVGITQPRRVAAVSMAERVANELGDHGHKVGYQIRFDSTAKEDTKVKFMTDGVLLREMMHDFKLTKYSSIIIDEAHERNINTDILIGMLSRCVRLRAKLHKENPIEHKKLKLIIMSATLRVSDFSENKTLFPIAPPVLQVDARQFPVSIHFNRRTAFNYTDEAFRKTCKIHQKLPPGAILVFLTGQQEITHMVKRLRKEFPFKKNSKYNKDLETPVSKMGINSKTTDLEAEDIDFSVQVIDQDKFKSAIRYEEDEGNSGNGEDEEDEEEEGFEEVLTEGQTANDPLYVLPLYSLLPTKEQMRVFQKPPQGSRLCIVATNVAETSLTIPGVRYVVDSGRSKERKYNESNGVQSFEVGWVSKASANQRSGRAGRTGPGHCYRLYSSAVFEHDFEQFSKPEILRMPVESIVLQMKSMAIHNIINFPFPTPPDRVALSKAIQLLQYLGALDNKEMITEDGKKMSLFPLSPRFSKMLLVSDEKACLPYIVAIVSALSVGDPFINEFELGINEISRKPNPDENLDDKIREHDESTPGMDPELKKELRSKFYKSRSQFSKLDKFSDVFRLLSVVSAMDYVPKEQKEIFMKKNFLRGKLMEEIVKLRKQLMYIIKSNTSKENIAVVIRNEDLKSDIPSVIQIKLLKQMICAGFVDHVAVRADVLFPDDAKITNRTSIINIPYIPVLATRTPNIEDCFVYIHPTSILNNLGEMPPKYMLYYSLHLGGNNKTRMNTLCDIASTPLANIARKGLLLTYSKPLTGQGLKTVNLSPTERYCYVVPRFGSTVDNDLKIGWDLNPIAVHQKKQKGQWTVIKFITRKGFQTITGEEKEKK
notes: Dhr1 (Ecm16), DEAH/RHA RNA helicase of Saccharomyces cerevisiae, residues 1-375 deleted; Cloned into pET21a(+) with a C-terminal Hisx6 tag; also called ΔN-WT; dhr1-Δ1–375 (ΔN); source: E. coli Codon+ BL21 (DE3) RIL (AJE854), purified (HisTrap FF, HiTrap Capto SP)
B2: Utp14-A′ (UTP14 746–780), 6-FAM-labelled peptide (peptide)
peptide: 6FAM-VFMFKQQDVIAEAFAGDDVVAEFQEEKKRVIDDED
notes: also called Utp14 fragment; source: synthetic peptide (Genscript)
B3: ΔN-Dhr1-YCK (RecA2 surface mutant) (domain or fragment, Saccharomyces cerevisiae, UniProt Q04217 376-1267, looked up)
chain: B1 chain with H218Y, R221C, E456K
notes: Dhr1 (Ecm16) of Saccharomyces cerevisiae, residues 1-375 deleted, with three mutations on the RecA2 surface; also called ΔN-Dhr1-RecA2; ΔN-Dhr1-RecA2-mutants; source: E. coli Codon+ BL21 (DE3) RIL (AJE854), purified (HisTrap FF, HiTrap Capto SP)
B4: ΔN-Dhr1-ΔSKTTD (domain or fragment, Saccharomyces cerevisiae, UniProt Q04217 376-1267, looked up)
chain: VEVSRSDEIQKARIQLPVFGEEHKIMEAIHHNDVVIICGETGSGKTTQVPQFLYEAGFGAEDSPDYPGMVGITQPRRVAAVSMAERVANELGDHGHKVGYQIRFDSTAKEDTKVKFMTDGVLLREMMHDFKLTKYSSIIIDEAHERNINTDILIGMLSRCVRLRAKLHKENPIEHKKLKLIIMSATLRVSDFSENKTLFPIAPPVLQVDARQFPVSIHFNRRTAFNYTDEAFRKTCKIHQKLPPGAILVFLTGQQEITHMVKRLRKEFPFKKNSKYNKDLETPVSKMGINLEAEDIDFSVQVIDQDKFKSAIRYEEDEGNSGNGEDEEDEEEEGFEEVLTEGQTANDPLYVLPLYSLLPTKEQMRVFQKPPQGSRLCIVATNVAETSLTIPGVRYVVDSGRSKERKYNESNGVQSFEVGWVSKASANQRSGRAGRTGPGHCYRLYSSAVFEHDFEQFSKPEILRMPVESIVLQMKSMAIHNIINFPFPTPPDRVALSKAIQLLQYLGALDNKEMITEDGKKMSLFPLSPRFSKMLLVSDEKACLPYIVAIVSALSVGDPFINEFELGINEISRKPNPDENLDDKIREHDESTPGMDPELKKELRSKFYKSRSQFSKLDKFSDVFRLLSVVSAMDYVPKEQKEIFMKKNFLRGKLMEEIVKLRKQLMYIIKSNTSKENIAVVIRNEDLKSDIPSVIQIKLLKQMICAGFVDHVAVRADVLFPDDAKITNRTSIINIPYIPVLATRTPNIEDCFVYIHPTSILNNLGEMPPKYMLYYSLHLGGNNKTRMNTLCDIASTPLANIARKGLLLTYSKPLTGQGLKTVNLSPTERYCYVVPRFGSTVDNDLKIGWDLNPIAVHQKKQKGQWTVIKFITRKGFQTITGEEKEKK
notes: Dhr1 (Ecm16) of Saccharomyces cerevisiae, residues 1-375 deleted and the five residues SKTTD (aa 666-670) of loop 1 deleted; also called ΔN-ΔSKTTD; ΔNΔSKTTD; source: E. coli Codon+ BL21 (DE3) RIL (AJE854), purified (HisTrap FF, HiTrap Capto SP)

Key:
Conditions in all cases: both partners purified
[1] = target: T1, Utp14-G (aa 710–800), fusion to maltose …; experiment: mass photometry; Dhr1 variant and Utp14-G mixed at a 1:1 ratio; TwoMP instrument, room temperature (25.3 °C); 40 mM Tris–HCl pH 8.0, 40 mM KCl, 150 mM NaCl, 2 mM NaOAc, 2 mM DTT, 10 mM MgCl2, 4% glycerol
ΔN-Dhr1-ΔSKTTD = target: B4; experiment: fluorescence polarisation; 1.25 nM 6-FAM-labelled Utp14-A′ peptide titrated with Dhr1 variants; 25 °C; 40 mM Tris–HCl pH 8.0, 40 mM KCl, 150 mM NaCl, 2 mM NaOAc, 2 mM DTT, 10 mM MgCl2, 4% glycerol, 0.05% Tween 20; saturation not reached, no Kd calculated
[2] = target: B3; experiment: as above
[3] = target: B1; experiment: as above

Row | Binder | percent complex [1] [%] | binding result (ΔN-Dhr1-ΔSKTTD) | binding result [2] | binding result [3]
1 | B1 | 23 |  |  | 
2 | B2 |  | binds | binds | binds
3 | B3 | 16 |  |  | 
4 | B4 | 48 |  |  | 
